Laboratory results: the nanobody polyreactivity screen of Harvey et al. (2022)

Assay: yeast display, Sf9 membrane polyspecificity reagent, FACS + sequencing; frameworks hold sequencing errors
Outline: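 After 36–48 hours of galactose induction, yeast (Saccharomyces cerevisiae BJ5465) displaying a synthetic nanobody library were stained at 4 °C for 1 hour with 10% biotinylated, detergent-solubilized Sf9 membrane reagent. Streptavidin microbeads enriched the stained cells before FACS sorting into low and high (top ~1%) gates on anti-HA and streptavidin fluorescence. Each clone's polyreactivity label reflects its gate of origin.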

| Sequence | polyreactivity (PSR sort gate) |
| --- | --- |
| QVQLVESGGGLVQAGGSLRLSCAASGFTFSAYDMGWYRQAPGKERELVAAISWSGGRTYYADSVKGRFTISRDNAKNTVYLQMNSLKPEDTAVYYCNAASLRYSYTLFDSWGQGTQVTVSS | high polyreactivity |
| QVQLVESGGGLVQAGGSLRLSCAASGGIFSYAMGWSRQAPGKERELVADINSDGSTTYADSVKGRFTISRDNAKNTVYLQMNSLKPEDTAVYYCAVDVSVNWPLLERYEYWGQGTQVTVSS | low polyreactivity |
| QVQLVESGGGLVQAGGSLRLSCAASGSTFYRNAMGWYRQAPGKEREFVAAISFRGGGTYADSVKGRFTISRDNAKNTVYLQMNSLKPEDTAVYYCAADYSVYWLDYGYWGQGTQVTVSS | low polyreactivity |
| QVQLVESGGGLVQAGGSLRLSCAASGRISFINAMGWYRQAPGKEREFVAGITTDGGSTYYADSVKGRFTISRDNAKNTVYLQMNSLKPEDTAVYYCAAEGSVWYVYWGDIYDYWGQGTQVTVSS | low polyreactivity |
| QVQLVESGGGLVQAGGSLRLSCAASGSIFVFNAMGWYRQAPGKERELVADITRRGGSTYYADSVKGRFTISRDNAKNTVYLQMNSLKPEDTAVYYCAAANPRDHRGANDYWGQGTQVTVSS | high polyreactivity |
| QVQLVESGGGLVQAGGSLRLSCAASGSTFIFNTMGWYRQAPGKEREVVASITGDGRTNYADSVKGRFTISRDNAKNTVYLQMNSLKPEDTAVYYCAADGYDQYPLWAPPGDYWGQGTQVTVSS | low polyreactivity |
| QVQLVESGGGLVQAGGSLRLSCAASGGTFTSNAMGWYRQAPGKERELVAAISSRGGTYYADSVKGRFTISRDNAKNTVYVQMNSLKPEDTAVYYCAARGYLYSWNVSHTYDYWGQGTQVTVSS | high polyreactivity |
| QVQLEESGGGLVQAGGSLRLSCAASGFTFTPNAMGWYRQAPGKERELVAAINWSGGRTYYADSVKGRFTISRDNAKNTVYLQMNSLKPEDTAVYYCNVLKGRSYYPGMDYWGQGTQVTVSS | high polyreactivity |
| QVQLVESGGGLVQAGGSLRLSCAASGRIFTLYDMGWYIQAPGKERELVAAISNSAGSTYYADSVKGRFTISRDNAKNTVYLQMNSLKPEDTAVYYCAAELWSWWGSRDYWGQGTQVTVSS | high polyreactivity |
| QVQLVESGGGLVQAGGSLRLSCAASAITFFNNAMGWYRPATGKERELVADITYSGSTYYADSVKGRFTISRDNAQNSVYLQMNSLKPEDTAVYYCSAGHAYDYFVYYPDDYWGQGTQVTVSS | low polyreactivity |
| QVQLVESGGGLVQAGGSLRLRCAASGSIFTSYALGWYRQAPGKERELVAAINGSGGSTFYADSVKSRFTISRDNAKYTFYLQMNSLKPEDTAVYYCNTGGPRGTTYDFWGLGTQVTVSS | low polyreactivity |
| QVQLVESGGGLVEAGGSLRLSCAASGLTFYLYDMGWYRQAPGKERELVAAISRRGTSTYYADSVKGRFTISRDNAKNSVYLQMNSLKPEDTAVYYCAADRKVGRDYWGQGTQVTVSS | high polyreactivity |
| QVQLVESGGGLVQAGGSLRLSCAASGSTLWRYAMGWYRQAPGKERELVAGISRGGGSTYYADSVKGRFTISRDNANKTVYLQKNSLKPEDTAVYYCAADDPLYSISTGDYWGQGTQVTVSL | low polyreactivity |
| QVQRVESGRGLVQAGGRLRLSCAASGFIFDRNVMGLYRQAPGNERELVAAISSSGGSTYYADSVKGRFTISRDNAKNTVYLQMNSLKPEDTAVYYCNRLAYRNMDYWGQGTQVTVSS | high polyreactivity |
| QVQLVESGGGLVQAGGSLRLSCAASGSIFGYNTMGWYRQAPGKERELVAAISYSGGRTYYADSVKGRFTISRDNAKNTVYVQMNSLKPEDTAVYYCAADFYFRRGTDYDYWGQGTQVTVSS | high polyreactivity |
| QVQLVESGGGLVQAGGSLRLSCAASGSTFDVNAMGSYRQAPGKERELVAAISWNSGSTYYADSVKGRFTISRDNAKNTVYLQMNSLKPEDTAVYYCAATYGTGRRSKYGYWGQGTQVTVSS | high polyreactivity |
| QVQLVESGGGLVQAGGSLRLSCAASGRIFPRNAMGWYRQAPGQERELVAAITKSGGSTYYADSVKGRFTISRDNAKNTVYLQMNSLKPEDTAVYYCNAVQYRNYYWGQGTQVTVSS | high polyreactivity |
| QVQLVESGGGLVQAGGSLRLSCAASGRIFSINVMGWYRHAPGKERELVAAISKRGGSTYYADSVKGRFTISRDNAKNTVYLQMNSLKPEDTAVYYCAARRHYTYGNGPSRGGQMDYWGQGTQVTVSS | high polyreactivity |
| QVQLVESGGGLVQAGGSLSLSCAATGLTFQQYAMGWYRQAPWKERELVAAITVSGGHTYYADSVKGRFTISRDNAKNTVYLQMNTLKPEDTAVYYCAAPPGYTGRYDYYYCGQGTQVTVSS | high polyreactivity |
| QVQLVESGGGLVQAGGTLRLTCAASGFTLTRNAMGWYRQAPGKERELVAAISRSGGSTYYADSVKGRFTISRDNAKNTVYLQMNSLKPEDTAVYYCAADDKYFYPGNGYWGLGTQVTVSS | high polyreactivity |
| QVQLVESGGGLVQAGGSLRLSCAASVRIFGYNAMGWSRQAPGKERYLVAAITTSGGSTYYADSVKGRFTISRDNAKNTVYLQMNSLKPEDTAVYYCARDSLQVFYPYASDDYWGQGTQVTVSS | low polyreactivity |
| QVQLVESGGGLVKAGGSLRLSCAASGSIFGGYAMGCYRQAPGKERELVAAISYRGASTYYADSVKWRFTISRDNAKNTVYLQMNSLKPEDTAVYYCAVAARTRARVLYGYDYWGQGTQVTVSS | low polyreactivity |

| Sequence | polyreactivity (PSR sort gate) |
| --- | --- |
| QVQLQESGGGLMQAGVSQRLSCAASGSISYYSDMGWYRQAPRKEREFVAGIGYGTTTYYADSVKGRFTTSRDNAKNTVYLQMISMKPEDTAVYYCAAYQGNGYEFYYWGQGTQVTVRS | low polyreactivity |
| QLQLVESGGGLVQARGSLRLICADSGRIFTSYTMGWYRQAPGKERELVAAIDWSGGTTYYADSVKGPFTISRDNAKNTVYFQMISLKPEDTAVYYCSALYVIVGYYTYEYWGQGTQVTVSS | low polyreactivity |
| QVQLVESGGGLVQAGGSLRLSCAASGFTFNRNAMGWYRQAPGKERELVAAISWSGGSTYYADSVKGRFTLSRDNAKNTVYLQMNSLKPEETAVYYCAKGYRRVYGPFYYWGQGTQVTVSS | low polyreactivity |
| QVQLVESVGGLDQAGGSLRLSCAASGRIFRQNAMGWYRQAPGKERELVAAISRSGGSTYYADSVKGRFTISRDNAKNTVYLQMNSLKPEDTAVYYCNRDYQSQRTYPRRYDYCGQGTQVTVSS | low polyreactivity |
| QVQLVESGGGLVQAGGSLRLSCAASGSTFGSYAMRWYRQAPGKERELVAAITASGGSTYYADSVKGRFTISRDNAKNTVYLQMNSLKPEDTAVYYCAADTTYIPLSIEYDYWGQGTQVTVSS | low polyreactivity |
| QVQLVESGGGLVQAGGSLRLSSAASGSIFLFYAMGWYRQAPGKERELVATITTGAGSTYYADSVKGRFTISRDNAKNTVFLQMNSLKPEDTAVYYCAATVSYDFGYVAVSYDYWGQGTQVTVSS | low polyreactivity |
| QVQLVESGGGLVQAVGSLRLSCAPSGSTFPYYAMGWYRQAPGKERELVASIRKRGGGTYYADSVKGRFTISRDNAKNTVYLQMNSLKPEDTAVYYCAVRVYQFRYTGYDYWGQGTQVTVSS | high polyreactivity |
| QVQLVESGGGLVQAGGSLRLSCAASGSTFNRNTMGWYRQAPGKERELLAAISRRGGSTYYADSVKGRFTISRDNAKNTVYLQMNSLKPEDTAVYYCAAGREYRVYKGAQEFDYWGQGTQVTVSS | high polyreactivity |
| QVQLVESVGGLVQAGGSLRLSCAASGRIYVYVMGWYIQSPGKERELVAAITSGGSTYYADSVKGRFTISRDNAKNTDYLQMNSLKPEDTAVYYCAADVNGGYDYYYFVSIVYYWGQGTQVTVSS | low polyreactivity |
| QVQLVESGGGLVQAGGILRLSCPASGRTFVNYAMGWYRQQPGKESELVAAITSRGGSTYYADSVKGRFTISRDNAKNSVFLQMNSLKPEDTAFYYCAAGEYYYWGQGTQVTVSS | high polyreactivity |
| QVQLVESGGGLVQAGGSLRLSCAASGSTLYWNAMGWYRQAPGKERELVADISSTGRTYYADSVKGRFTISRDNAKNTVYLQMNSLKPEDTAVYYCNADYFFEFDYWGQGTQVTVSS | low polyreactivity |
| QVQLVESGGGLVQAGGSLRLSCAASGSTFVENAMGWYRQAPGKQRELVAAISSSGDSTFYADSEKGRFTISRDNAKNTVYLQMNSLIPEDTAVYYCAADRRINYDGLDMDYWGQGTQVTVSS | low polyreactivity |
| QVQLVESGGGLVQAGGSLRLSCAASGFTFKYNAMGWYRQAPGKERELVASISSGSTNYADSVKGRFTISRDNAKNTVYLQMNSLKPEDTAVYYCSASVSRGKRFRYGYVFKMDYWGQGTQVTVSS | low polyreactivity |
| QVQLVESGGGLVQAGGSLRLSCAASGRIFLPYAMGWYRQAPGKERELVAAIDTNGGSTYYADSVKGRFTISRDNAKNTVYLQMNSLKPEDSAVYYCAAEVYDYTYVVTFLYDYWGQGTQVTVSS | high polyreactivity |
| QVQLVESGGGLVQAGGSLRLSCAASGSILPRYGMGWYRQAPGKEREFVAAISWRGGRTYYADSVKGRFTISRDNAKNTVYLQMNSLKPEDTAVYYCAARANIYTRLDYWGQGTQVTVSS | high polyreactivity |
| QVQLVESGGGLVQAGGSLRLSCAASGRTFKYYAMGWYRQAPGKERELVAAISVSGGRTYYADSVKGRFTISRDNAKNTVYLQMNSLKPEDTAVYYCNAVRYVHPEDYWGQGTQVTVSS | high polyreactivity |
| QVQLVESGGGLVQAGGSLRLSCAASGRIFRYYDMGWYRPAPGTERELVAAITSDGSTKYADSVKGRFTISRDNAKNTVYLQMNSLKPEDTAVYYCNAEVLPTWYSPQLDYWGQGTQVTVSS | low polyreactivity |
| QVQLVESGGGLVQAGGILRLSSAASGSTFFNYAMGWYRQAPGKERELVAAISSSGGRTYYADSVKGRFTISRDNAKNTVYLQMNSLKPEDTSVYYCAASGRKHGMNYWGQGTQVTVSS | high polyreactivity |
| QVQLVESGGGLVQAGGSLRLSCAASGSIFNRYAMGWFRQAPGKERELVAAISRRGAGTYYADSVKGRFTISRDNAKNTVYLQMNSLKPEDTAVYYCAATLSYTGSKRYDYWGQGTQVTVSS | high polyreactivity |
| QVQLVESGGGLVQAGGSLRLSCAASGSIFPANAMGWYRQAPGKERELVAAISGRGGRTYYADSVKGRFTISRDNAKNTVYLQMNSLKPEDTAVYYCNKVGPLVGGVKYYYWGQGTQVTVSS | high polyreactivity |
| QVQLVESGGGLVQAGGSLRLSCAASGSTFQNYAMGWYIQAPGKERELVAAIRGNGGITYYADSVKGRFTISRDNAKNTVYLQMNSLKPEDTAVYYFAVRSAWVYGIRRDYWGQGTQVTVSS | high polyreactivity |
